Data taken from PMC2568807.

Target: ovine CRY1 (Cryptochrome 1), Flag-tagged (sheep)

## ovine Fbxl21 full-length, Myc-tagged (from UniProt B3FL73 1-434) (natural protein)
  attenuation of oCRY1 repression of oCLK/oBM1-induced oRev-erb alpha luciferase reporter transactivation in COS7 cells (100 or 200 ng Fbxl vector): 75%
